Laboratory results from IntAct's records for PubMed 25117710.

B1: Protein C-ets-2 (Homo sapiens), P15036 (parent)
chain: MNDFGIKNMDQVAPVANSYRGTLKRQPAFDTFDGSLFAVFPSLNEEQTLQEVPTGLDSISHDSANCELPLLTPCSKAVMSQALKATFSGFKKEQRRLGIPKNPWLWSEQQVCQWLLWATNEFSLVNVNLQRFGMNGQMLCNLGKERFLELAPDFVGDILWEHLEQMIKENQEKTEDQYEENSHLTSVPHWINSNTLGFGTEQAPYGMQTQNYPKGGLLDSMCPASTPSVLSSEQEFQMFPKSRLSSVSVTYCSVSQDFPGSNLNLLTNNSGTPKDHDSPENGADSFESSDSLLQSWNSQSSLLDVQRVPSFESFEDDCSQSLCLNKPTMSFKDYIQERSDPVEQGKPVIPAAVLAGFTGSGPIQLWQFLLELLSDKSCQSFISWTGDGWEFKLADPDEVARRWGKRKNKPKMNYEKLSRGLRYYYDKNIIHKTSGKRYVYRFVCDLQNLLGFTPEELHAILGVQPDTED
B2: Protein C-ets-1 (Homo sapiens), P14921-1 (parent)
chain: MKAAVDLKPTLTIIKTEKVDLELFPSPDMECADVPLLTPSSKEMMSQALKATFSGFTKEQQRLGIPKDPRQWTETHVRDWVMWAVNEFSLKGVDFQKFCMNGAALCALGKDCFLELAPDFVGDILWEHLEILQKEDVKPYQVNGVNPAYPESRYTSDYFISYGIEHAQCVPPSEFSEPSFITESYQTLHPISSEELLSLKYENDYPSVILRDPLQTDTLQNDYFAIKQEVVTPDNMCMGRTSRGKLGGQDSFESIESYDSCDRLTQSWSSQSSFNSLQRVPSYDSFDSEDYPAALPNHKPKGTFKDYVRDRADLNKDKPVIPAAALAGYTGSGPIQLWQFLLELLTDKSCQSFISWTGDGWEFKLSDPDEVARRWGKRKNKPKMNYEKLSRGLRYYYDKNIIHKTAGKRYVYRFVCDLQSLLGYTPEELHAMLDVKPDADE

Variants of: B1
Details: with cop1_human COP1, Q8NHY2
Target sequence in this assay (Q8NHY2 whole entry): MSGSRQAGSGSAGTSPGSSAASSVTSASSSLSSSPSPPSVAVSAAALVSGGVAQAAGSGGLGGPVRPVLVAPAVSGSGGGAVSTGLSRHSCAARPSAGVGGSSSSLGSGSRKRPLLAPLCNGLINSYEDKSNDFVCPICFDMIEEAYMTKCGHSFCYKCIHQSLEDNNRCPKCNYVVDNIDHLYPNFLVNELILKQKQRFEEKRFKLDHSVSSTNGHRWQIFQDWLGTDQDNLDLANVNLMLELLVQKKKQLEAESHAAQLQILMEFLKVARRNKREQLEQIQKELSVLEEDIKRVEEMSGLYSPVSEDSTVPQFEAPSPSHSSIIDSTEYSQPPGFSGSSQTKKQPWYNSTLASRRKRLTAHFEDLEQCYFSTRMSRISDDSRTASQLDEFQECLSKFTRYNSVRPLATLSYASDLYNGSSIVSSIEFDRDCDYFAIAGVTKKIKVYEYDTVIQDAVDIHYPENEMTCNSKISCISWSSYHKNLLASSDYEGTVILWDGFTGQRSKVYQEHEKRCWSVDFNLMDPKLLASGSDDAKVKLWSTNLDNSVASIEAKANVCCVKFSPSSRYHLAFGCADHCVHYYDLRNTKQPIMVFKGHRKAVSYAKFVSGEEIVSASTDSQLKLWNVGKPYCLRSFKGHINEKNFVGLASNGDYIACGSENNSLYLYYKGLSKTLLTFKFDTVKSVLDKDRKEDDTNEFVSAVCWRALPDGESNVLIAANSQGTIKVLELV

Variant	effect of a mutation on the interaction
MNDFGIKNMDQVAPVANSYRGTLKRQPAFDTFDGSLFAVFPSLNEEQTLQEAATGLDSISHDSANCELPLLTPCSKAVMSQALKATFSGFKKEQRRLGIPKNPWLWSEQQVCQWLLWATNEFSLVNVNLQRFGMNGQMLCNLGKERFLELAPDFVGDILWEHLEQMIKENQEKTEDQYEENSHLTSVPHWINSNTLGFGTEQAPYGMQTQNYPKGGLLDSMCPASTPSVLSSEQEFQMFPKSRLSSVSVTYCSVSQDFPGSNLNLLTNNSGTPKDHDSPENGADSFESSDSLLQSWNSQSSLLDVQRAASFESFEDDCSQSLCLNKPTMSFKDYIQERSDPVEQGKPVIPAAVLAGFTGSGPIQLWQFLLELLSDKSCQSFISWTGDGWEFKLADPDEVARRWGKRKNKPKMNYEKLSRGLRYYYDKNIIHKTSGKRYVYRFVCDLQNLLGFTPEELHAILGVQPDTED [V52A;P53A;V308A;P309A]	disrupting interaction strength
MNDFGIKNMDQVAPVANSYRGTLKRQPAFDTFDGSLFAVFPSLNEEQTLQEAATGLDSISHDSANCELPLLTPCSKAVMSQALKATFSGFKKEQRRLGIPKNPWLWSEQQVCQWLLWATNEFSLVNVNLQRFGMNGQMLCNLGKERFLELAPDFVGDILWEHLEQMIKENQEKTEDQYEENSHLTSVPHWINSNTLGFGTEQAPYGMQTQNYPKGGLLDSMCPASTPSVLSSEQEFQMFPKSRLSSVSVTYCSVSQDFPGSNLNLLTNNSGTPKDHDSPENGADSFESSDSLLQSWNSQSSLLDVQRVPSFESFEDDCSQSLCLNKPTMSFKDYIQERSDPVEQGKPVIPAAVLAGFTGSGPIQLWQFLLELLSDKSCQSFISWTGDGWEFKLADPDEVARRWGKRKNKPKMNYEKLSRGLRYYYDKNIIHKTSGKRYVYRFVCDLQNLLGFTPEELHAILGVQPDTED [V52A;P53A]	decreasing interaction strength
MNDFGIKNMDQVAPVANSYRGTLKRQPAFDTFDGSLFAVFPSLNEEQTLQEVPTGLDSISHDSANCELPLLTPCSKAVMSQALKATFSGFKKEQRRLGIPKNPWLWSEQQVCQWLLWATNEFSLVNVNLQRFGMNGQMLCNLGKERFLELAPDFVGDILWEHLEQMIKENQEKTEDQYEENSHLTSVPHWINSNTLGFGTEQAPYGMQTQNYPKGGLLDSMCPASTPSVLSSEQEFQMFPKSRLSSVSVTYCSVSQDFPGSNLNLLTNNSGTPKDHDSPENGADSFESSDSLLQSWNSQSSLLDVQRAASFESFEDDCSQSLCLNKPTMSFKDYIQERSDPVEQGKPVIPAAVLAGFTGSGPIQLWQFLLELLSDKSCQSFISWTGDGWEFKLADPDEVARRWGKRKNKPKMNYEKLSRGLRYYYDKNIIHKTSGKRYVYRFVCDLQNLLGFTPEELHAILGVQPDTED [V308A;P309A]	decreasing interaction strength

Variants of: B2
Details: with cop1_human COP1, Q8NHY2
Target sequence in this assay (Q8NHY2 whole entry): as the sequence (Q8NHY2 whole entry) above

Variant	effect of a mutation on the interaction
MKAAVDLKPTLTIIKTEKVDLELFPSPDMECADVPLLTPSSKEMMSQALKATFSGFTKEQQRLGIPKDPRQWTETHVRDWVMWAVNEFSLKGVDFQKFCMNGAALCALGKDCFLELAPDFVGDILWEHLEILQKEDVKPYQVNGVNPAYPESRYTSDYFISYGIEHAQCVPPSEFSEPSFITESYQTLHPISSEELLSLKYENDYPSVILRDPLQTDTLQNDYFAIKQEVVTPDNMCMGRTSRGKLGGQDSFESIESYDSCDRLTQSWSSQSSFNSLQRVPSFDSFDSEDYPAALPNHKPKGTFKDYVRDRADLNKDKPVIPAAALAGYTGSGPIQLWQFLLELLTDKSCQSFISWTGDGWEFKLSDPDEVARRWGKRKNKPKMNYEKLSRGLRYYYDKNIIHKTAGKRYVYRFVCDLQSLLGYTPEELHAMLDVKPDADE [Y283F]	increasing interaction strength
MKAAVDLKPTLTIIKTEKVDLELFPSPDMECADVPLLTPSSKEMMSQALKATFSGFTKEQQRLGIPKDPRQWTETHVRDWVMWAVNEFSLKGVDFQKFCMNGAALCALGKDCFLELAPDFVGDILWEHLEILQKEDVKPYQVNGVNPAYPESRYTSDYFISYGIEHAQCVPPSEFSEPSFITESYQTLHPISSEELLSLKYENDYPSVILRDPLQTDTLQNDYFAIKQEVVTPDNMCMGRTSRGKLGGQDSFESIESYDSCDRLTQSWSSQSSFNSLQRVPDFDSFDSEDYPAALPNHKPKGTFKDYVRDRADLNKDKPVIPAAALAGYTGSGPIQLWQFLLELLTDKSCQSFISWTGDGWEFKLSDPDEVARRWGKRKNKPKMNYEKLSRGLRYYYDKNIIHKTAGKRYVYRFVCDLQSLLGYTPEELHAMLDVKPDADE [S282D;Y283F]	increasing interaction strength
MKAAVDLKPTLTIIKTEKVDLELFPSPDMECADVPLLTPSSKEMMSQALKATFSGFTKEQQRLGIPKDPRQWTETHVRDWVMWAVNEFSLKGVDFQKFCMNGAALCALGKDCFLELAPDFVGDILWEHLEILQKEDVKPYQVNGVNPAYPESRYTSDYFISYGIEHAQCVPPSEFSEPSFITESYQTLHPISSEELLSLKYENDYPSVILRDPLQTDTLQNDYFAIKQEVVTPDNMCMGRTSRGKLGGQDSFESIESYDSCDRLTQSWSSQSSFNSLQRVPAFDSFDSEDYPAALPNHKPKGTFKDYVRDRADLNKDKPVIPAAALAGYTGSGPIQLWQFLLELLTDKSCQSFISWTGDGWEFKLSDPDEVARRWGKRKNKPKMNYEKLSRGLRYYYDKNIIHKTAGKRYVYRFVCDLQSLLGYTPEELHAMLDVKPDADE [S282A;Y283F]	increasing interaction strength
MKAAVDLKPTLTIIKTEKVDLELFPSPDMECADVPLLTPSSKEMMSQALKATFSGFTKEQQRLGIPKDPRQWTETHVRDWVMWAVNEFSLKGVDFQKFCMNGAALCALGKDCFLELAPDFVGDILWEHLEILQKEDVKPYQVNGVNPAYPESRYTSDYFISYGIEHAQCVPPSEFSEPSFITESYQTLHPISSEELLSLKYENDYPSVILRDPLQTDTLQNDYFAIKQEVVTPDNMCMGRTSRGKLGGQDSFESIESYDSCDRLTQSWSSQSSFNDLQRVPSFDSFDSEDYPAALPNHKPKGTFKDYVRDRADLNKDKPVIPAAALAGYTGSGPIQLWQFLLELLTDKSCQSFISWTGDGWEFKLSDPDEVARRWGKRKNKPKMNYEKLSRGLRYYYDKNIIHKTAGKRYVYRFVCDLQSLLGYTPEELHAMLDVKPDADE [S276D;Y283F]	increasing interaction strength
MKAAVDLKPTLTIIKTEKVDLELFPSPDMECADVPLLTPSSKEMMSQALKATFSGFTKEQQRLGIPKDPRQWTETHVRDWVMWAVNEFSLKGVDFQKFCMNGAALCALGKDCFLELAPDFVGDILWEHLEILQKEDVKPYQVNGVNPAYPESRYTSDYFISYGIEHAQCVPPSEFSEPSFITESYQTLHPISSEELLSLKYENDYPSVILRDPLQTDTLQNDYFAIKQEVVTPDNMCMGRTSRGKLGGQDSFESIESYDSCDRLTQSWSSQSSFNALQRVPDFDSFDSEDYPAALPNHKPKGTFKDYVRDRADLNKDKPVIPAAALAGYTGSGPIQLWQFLLELLTDKSCQSFISWTGDGWEFKLSDPDEVARRWGKRKNKPKMNYEKLSRGLRYYYDKNIIHKTAGKRYVYRFVCDLQSLLGYTPEELHAMLDVKPDADE [S276A;S282D;Y283F]	increasing interaction strength
MKAAVDLKPTLTIIKTEKVDLELFPSPDMECADVPLLTPSSKEMMSQALKATFSGFTKEQQRLGIPKDPRQWTETHVRDWVMWAVNEFSLKGVDFQKFCMNGAALCALGKDCFLELAPDFVGDILWEHLEILQKEDVKPYQVNGVNPAYPESRYTSDYFISYGIEHAQCVPPSEFSEPSFITESYQTLHPISSEELLSLKYENDYPSVILRDPLQTDTLQNDYFAIKQEVVTPDNMCMGRTSRGKLGGQDSFESIESYDSCDRLTQSWSSQSSFNDLQRVPDFDSFDSEDYPAALPNHKPKGTFKDYVRDRADLNKDKPVIPAAALAGYTGSGPIQLWQFLLELLTDKSCQSFISWTGDGWEFKLSDPDEVARRWGKRKNKPKMNYEKLSRGLRYYYDKNIIHKTAGKRYVYRFVCDLQSLLGYTPEELHAMLDVKPDADE [S276D;S282D;Y283F]	increasing interaction strength

Variants of: B2
Details: with cop1_human COP1, Q8NHY2
Remark: another data set of the same source
Target sequence in this assay (Q8NHY2 whole entry): as the sequence (Q8NHY2 whole entry) above

Variant	effect of a mutation on the interaction
MKAAVDLKPTLTIIKTEKVDLELFPSPDMECADVPLLTPSSKEMMSQALKATFSGFTKEQQRLGIPKDPRQWTETHVRDWVMWAVNEFSLKGVDFQKFCMNGAALCALGKDCFLELAPDFVGDILWEHLEILQKEDVKPYQVNGVNPAYPESRYTSDYFISYGIEHAQCVPPSEFSEPSFITESYQTLHPISSEELLSLKYENDYPSVILRDPLQTDTLQNDYFAIKQEVVTPDNMCMGRTSRGKLGGQDSFESIESYDSCDRLTQSWSSQSSFNSLQRAASYDSFDSEDYPAALPNHKPKGTFKDYVRDRADLNKDKPVIPAAALAGYTGSGPIQLWQFLLELLTDKSCQSFISWTGDGWEFKLSDPDEVARRWGKRKNKPKMNYEKLSRGLRYYYDKNIIHKTAGKRYVYRFVCDLQSLLGYTPEELHAMLDVKPDADE [V280A;P281A]	disrupting interaction strength
